Consider 4 molecules from US20190345459A1 (YEDA RESEARCH AND DEVELOPMENT, published 2019).

For experiment [1], the target named is T1, tetravalent scaffoldin ScafCA(CBM)TF (SEQ ID No. 5).
T1 chain: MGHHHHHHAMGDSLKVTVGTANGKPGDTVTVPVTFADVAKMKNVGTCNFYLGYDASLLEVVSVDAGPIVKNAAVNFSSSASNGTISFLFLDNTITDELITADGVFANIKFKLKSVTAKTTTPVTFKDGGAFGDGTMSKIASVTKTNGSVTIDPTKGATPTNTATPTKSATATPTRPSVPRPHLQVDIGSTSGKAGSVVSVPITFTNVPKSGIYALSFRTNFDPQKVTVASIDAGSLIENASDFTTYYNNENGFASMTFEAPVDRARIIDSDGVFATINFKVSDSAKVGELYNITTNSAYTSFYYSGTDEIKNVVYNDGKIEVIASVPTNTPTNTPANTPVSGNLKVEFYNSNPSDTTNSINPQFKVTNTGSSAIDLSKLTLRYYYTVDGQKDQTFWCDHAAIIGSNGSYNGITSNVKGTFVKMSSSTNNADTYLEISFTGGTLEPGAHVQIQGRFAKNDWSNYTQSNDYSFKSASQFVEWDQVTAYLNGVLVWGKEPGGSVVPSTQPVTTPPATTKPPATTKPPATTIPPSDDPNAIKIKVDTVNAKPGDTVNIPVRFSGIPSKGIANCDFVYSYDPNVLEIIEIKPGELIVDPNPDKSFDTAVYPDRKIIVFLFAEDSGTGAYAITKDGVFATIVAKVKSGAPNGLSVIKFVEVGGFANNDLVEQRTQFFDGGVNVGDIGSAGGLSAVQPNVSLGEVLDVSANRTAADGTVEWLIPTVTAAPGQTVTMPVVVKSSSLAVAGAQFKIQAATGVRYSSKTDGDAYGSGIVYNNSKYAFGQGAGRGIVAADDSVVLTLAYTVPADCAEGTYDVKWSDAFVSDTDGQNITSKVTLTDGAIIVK
As to the kind of experiment: electrophoretic mobility on non-denaturing PAGE, equimolar enzymes and scaffoldin.

Experiment [2] concerns the target T2, C. thermocellum cohesin 3 from CipA (Clostridium thermocellum, UniProt Q06851 560-704).
T2 construct: domain: cohesin 3; also called cohesin T
T2 sequence: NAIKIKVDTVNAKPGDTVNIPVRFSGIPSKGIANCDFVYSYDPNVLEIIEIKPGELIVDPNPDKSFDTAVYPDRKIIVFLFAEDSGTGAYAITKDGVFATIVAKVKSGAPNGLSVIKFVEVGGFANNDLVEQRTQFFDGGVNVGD
As to the kind of experiment: affinity-based ELISA, cohesin-dockerin binding. Background: In an ELISA, binding on a coated surface is turned into a signal by an enzyme label.

B1: f-5A (SEQ ID No. 2) (enzyme)
chain: MAHHHHHHAPSPGTKLVPTWGDTNCDGVVNVADVVVLNRFLNDPTYSNITDQGKVNADVVDPQDKSGAAVDPAGVKLTVADSEAILKAIVELITLPQAVPGTQPGTGTPVERYGKVQVCGTQLCDEHGNPVQLRGMSTHGIQWFDHCLTDSSLDALAYDWKADIIRLSMYIQEDGYETNPRGFTDRMHQLIDMATARGLYVIVDWHILTPGDPHYNLDRAKTFFAEIAQRHASKTNVLYEIANEPNGVSWASIKSYAEEVIPVIRQRDPDSVIIVGTRGWSSLGVSEGSGPAEIAANPVNASNIMYAFHFYAASHRDNYLNALREASELFPVFVTEFGTETYTGDGANDFQMADRYIDLMAERKIGWTKWNYSDDFRSGAVFQPGTCASGGPWSGSSLKASGQWVRSKLQS
As for B1, the binding result in experiment [1] was “binds”.

B2: Xyn-c-Lac (SEQ ID No. 1), chimeric bifunctional xylanase-dockerin-laccase (enzyme)
chain: MGSSHHHHHHKNADSYAKKPHISALNAPQLDQRYKNEFTIGAAVEPYQLQNEKDVQMLKRHFNSIVAENVMKPISIQPEEGKFNFEQADRIVKFAKANGMDIRFHTLVWHSQVPQWFFLDKEGKPMVNETDPVKREQNKQLLLKRLETHIKTIVERYKDDIKYWDVVNEVVGDDGKLRNSPWYQIAGIDYIKVAFQAARKYGGDNIKLYMNDYNTEVEPKRTALYNLVKQLKEEGVPIDGIGHQSHIQIGWPSEAEIEKTINMFAALGLDNQITELDVSMYGWPPRAYPTYDAIPKQKFLDQAARYDRLFKLYEKLSDKISNVTFWGIADNHTWLDSRADVYYDANGNVVVDPNAPYAKVEKGKGKDAPFVFGPDYKVKPAYWAIIDHKSAGENLYFQGTSPVIVYGDYNNDGNVDALDFAGLKKYIMAADHAYVKNLDVNLDNEVNAFDLAILKKYLLGMVSKLPSQDPNSVTGTVVELAPGIHAGFTGRAGGVSGEPYATLNLGDHVGDDPAAVAENRRRAALGFGISPDRVVWMNQVHGATAVTVTGSGQAGDVDAVVTPEAGLALAVLVADCLPLLVADAAAGVIGAAHAGRPGMAAGVVPALVAEMARHGARPERCVALLGPAICGRCYEVPRDLQDRVARTVPEARCTTAEGTPGLDIRAGVTAQLTNLGVTNITHDSRCTRESADLFSYRRDATTGRFAGYVWRVP
notes: Recombinant, expressed in E. coli, His-tagged; also called xylanase-tagged laccase; bifunctional xylanase-laccase
Take B2: the binding result in experiment [2] is “no binding”.

B3: t-48A (SEQ ID No. 4) (enzyme)
chain: MAHHHHHHAVESSSTGLGDLNGDGNINSSDLQALKRHLLGISPLTGEALLRADVNRSGKVDSTDYSVLKRYILRIITEVPGHDSAEVTVREIDPNTSSYDQAFLEQYEKIKDPASGYFREFNGLLVPYHSVETMIVEAPDHGHQTTSEAFSYYLWLEAYYGRVTGDWKPLHDAWESMETFIIPGTKDQPTNSAYNPNSPATYIPEQPNADGYPSPLMNNVPVGQDPLAQELSSTYGTNEIYGMHWLLDVDNVYGFGFCGDGTDDAPAYINTYQRGARESVWETIPHPSCDDFTHGGPNGYLDLFTDDQNYAKQWRYTNAPDADARAVQVMFWAHEWAKEQGKENEIAGLMDKASKMGDYLRYAMFDKYFKKIGNCVGATSCPGGQGKDSAHYLLSWYYSWGGSLDTSSAWAWRIGSSSSHQGYQNVLAAYALSQVPELQPDSPTGVQDWATSFDRQLEFLQWLQSAEGGIAGGATNSWKGSYDTPPTGLSQFYGMYYDWQPVWNDPPSNNWFGFQVWNMERVAQLYYVTGDARAEAILDKWVPWAIQHTDVDADNGGQNFQVPSDLEWSGQPDTWTGTYTGNPNLHVQVVSYSQDVGVTAALAKTLMYYAKRSGDTTALATAEGLLDALLAHRDSIGIATPEQPSWDRLDDPWDGSEGLYVPPGWSGTMPNGDRIEPGATFLSIRSFYKNDPLWPQVEAHLNDPQNVPAPIVERHRFWAQVEIATAFAAHDELFGAGAP
Regarding B3, the binding result in experiment [1] is given as “binds”.

B4: Xyn11V-a (SEQ ID No. 3) (enzyme)
chain: MHHHHHHDVVITSNQTGTHGGYNFEYWKDTGNGTMVLKDGGAFSCEWSNINNILFRKGFKYDETKTHDQLGYITVTYSCNYQPNGNSYLGVYGWTSNPLVEYYIIESWGTWRPPGATPKGTITVDGGTYEIYETTRVNQPSIKGTATFQQYWSVRTSKRTSGTISVTEHFKAWERLGMKMGKMYEVALVVEGYQSSGKADVTSMTITVGNAPSTSSPPGPTPEPTPRSAFSKIEAEEYNSLKSSTIQTIGTSDGGSGIGYIESGDYLVFNKINFGNGANSFKARVASGADTPTNIQLRLGSPTGTLIGTLTVASTGGWNNYEEKSCSITNTTGQHDLYLVFSGPVNIDYFIFDSKGVNPTPTPTSTTTPTPKFIYGDVDGNGSVRINDAVLIRDYVLGKINEFPYEYGMLAADVDGNGSIKINDAVLVRDYVLGKIFLFPVEEKEELEHHHHHH
B4: in experiment [1], the binding result was “binds”.
